Data from publication doi:10.1101/2022.10.28.512841 (bioRxiv, 2022).

Molecular target: the molecule itself
Experiment: SEC-SAXS

B1: gated spinach aquaporin SoPIP2;1 (natural protein)
chain: MSKEVSEEAQAHQHGKDYVDPPPAPFFDLGELKLWSFWRAAIAEFIATLLFLYITVATVIGHSKETVVCGSVGLLGIAWAFGGMIFVLVYCTAGISGGHINPAVTFGLFLARKVSLLRALVYMIAQCLGAICGVGLVKAFMKGPYNQFGGGANSVALGYNKGTALGAEIIGTFVLVYTVFSATDPKRSARDSHVPILAPLPIGFAVFMVHLATIPITGTGINPARSFGAAVIFNSNKVWDDQWIFWVGPFIGAAVAAAYHQYVLRAAAIKALGSFRSNPTN
B1: binds.
